The labels stand for the following.
B1: Subtilisin-chymotrypsin inhibitor-2A, P01053 (parent)
chain: MSSVEKKPEGVNTGAGDRHNLKTEWPELVGKSVEEAKKVILQDKPEAQIIVLPVGTIVTMEYRIDRVRLFVDKLDNIAQVPRVG

The data set covers variants of B1. To be noted: Hordeum vulgare, MES 450 mM, reversible: yes, structure 2CI2, whole UniProt chain shown; for ddG of mutation (higher = less stable) / heat capacity change of unfolding / denaturant m value / denaturant midpoint (higher = more stable) / unfolding free energy: 25 °C.

The term Tm denotes the temperature at the midpoint of the melting transition.

Regarding I49A, for the setting “pH 3.5, Thermal, DSC”, the “ddG of mutation (higher = less stable)” value is 3.89 kcal/mol; the “heat capacity change of unfolding” value was determined as 0.72 kcal/mol/K; the Tm is 52.5 °C; the “change of melting temperature, mutant - wild type (higher = more stable)” value (“change of melting temperature, mutant” below) was -21.3 °C. For the same variant, under “pH 3.5, Thermal, DSC”, the “unfolding enthalpy (calorimetric)” value was 44.9 kcal/mol and the “unfolding enthalpy (van 't Hoff)” value came to 46.9 kcal/mol. Besides, where the note is “pH 6.3, GdnHCl, Fluorescence”, the “ddG of mutation (higher = less stable)” value turned out to be 3.4 kcal/mol, the denaturant m value worked out at 2.07 kcal/mol/M, the “denaturant midpoint (higher = more stable)” value (shortened to “denaturant midpoint”) is 2 M and the unfolding free energy was determined as 4.14 kcal/mol.

With L28A, for the setting “pH 3, Thermal, DSC”, the Tm turned out to be 48.5 °C; the “change of melting temperature, mutant” value was -15.5 °C; the “unfolding enthalpy (calorimetric)” value was determined as 45 kcal/mol; the “unfolding enthalpy (van 't Hoff)” value stood at 44.4 kcal/mol. Further, for the setting “pH 6.3, GdnHCl, Fluorescence”, the “ddG of mutation (higher = less stable)” value was 1.91 kcal/mol, the denaturant m value was found to be 2.15 kcal/mol/M, the “denaturant midpoint” value is 2.62 M and the unfolding free energy stood at 5.63 kcal/mol.

For I77A, for the setting “pH 3, Thermal, DSC”, the “ddG of mutation (higher = less stable)” value turned out to be 4.23 kcal/mol; the “heat capacity change of unfolding” value worked out at 0.72 kcal/mol/K; the Tm worked out at 38.3 °C; the “change of melting temperature, mutant” value was -25.7 °C. Further, where the note is “pH 3, Thermal, DSC”, the “unfolding enthalpy (calorimetric)” value amounted to 30.2 kcal/mol and the “unfolding enthalpy (van 't Hoff)” value was 37.2 kcal/mol. For the setting “pH 3.5, Thermal, DSC”, the “ddG of mutation (higher = less stable)” value stood at 4.34 kcal/mol; the “heat capacity change of unfolding” value was 0.72 kcal/mol/K; the Tm came out at 50.3 °C; the “change of melting temperature, mutant” value is -23.5 °C. For the same variant, for the setting “pH 3.5, Thermal, DSC”, the “unfolding enthalpy (calorimetric)” value was 41 kcal/mol and the “unfolding enthalpy (van 't Hoff)” value was 46.8 kcal/mol. In addition, under “pH 6.3, GdnHCl, Fluorescence”, the “ddG of mutation (higher = less stable)” value stood at 4.09 kcal/mol, the denaturant m value worked out at 1.93 kcal/mol/M, the “denaturant midpoint” value amounted to 1.79 M and the unfolding free energy stood at 3.45 kcal/mol.

Take I77V: under “pH 3, Thermal, DSC”, the “ddG of mutation (higher = less stable)” value is -0.09 kcal/mol; the “heat capacity change of unfolding” value is 0.72 kcal/mol/K; the Tm amounted to 65.4 °C; the “change of melting temperature, mutant” value was 1.4 °C. For the same variant, where the note is “pH 3, Thermal, DSC”, the “unfolding enthalpy (calorimetric)” value was 60.5 kcal/mol and the “unfolding enthalpy (van 't Hoff)” value came to 60.5 kcal/mol.

For V71A, under “pH 3, Thermal, DSC”, the “ddG of mutation (higher = less stable)” value came out at 2.17 kcal/mol; the “heat capacity change of unfolding” value turned out to be 0.72 kcal/mol/K; the Tm was determined as 51.3 °C; the “change of melting temperature, mutant” value is -12.7 °C. For the same variant, where the note is “pH 3, Thermal, DSC”, the “unfolding enthalpy (calorimetric)” value stood at 48.5 kcal/mol and the “unfolding enthalpy (van 't Hoff)” value came out at 49.7 kcal/mol. Further, under “pH 6.3, GdnHCl, Fluorescence”, the “ddG of mutation (higher = less stable)” value amounted to 1.13 kcal/mol, the denaturant m value came to 2.15 kcal/mol/M, the “denaturant midpoint” value was determined as 2.98 M and the unfolding free energy came to 6.41 kcal/mol.

Consider V67A, for which, under “pH 3.5, Thermal, DSC”, the melting temperature (Tm) stood at 45.3 °C; the “change of melting temperature, mutant” value is -28.5 °C; the “unfolding enthalpy (calorimetric)” value worked out at 37.3 kcal/mol; the “unfolding enthalpy (van 't Hoff)” value was 35.8 kcal/mol. Further, under “pH 6.3, GdnHCl, Fluorescence”, the “ddG of mutation (higher = less stable)” value came to 4.97 kcal/mol, the denaturant m value amounted to 1.76 kcal/mol/M, the “denaturant midpoint” value worked out at 1.46 M and the unfolding free energy was found to be 2.57 kcal/mol.
